This assay concerns the target low-density lipoprotein receptor-related protein-1 (LRP-1), endogenous, human cells (human (endogenous in FTC-133)).

The values that follow come from publication PMC5667986.

In the case of “β1-integrin, endogenous, human cells (from UniProt P05556 21-798) (receptor)”, the biotin-based internalisation of cell surface β1-integrin in FTC-133 cells (10 min at 37°C), decrease with 500 nM RAP against untreated cells is 2 fold and the percentage of Rab5a early endosomes positive for β1-integrin in FTC-133 cells (confocal), reduction with 500 nM RAP against control cells stood at 25%.
